Results reported in the supplement of paper PMC10567573.
± gives the standard deviation.

Assay: protein stability index of a GFP-peptide fusion (GPS, HEK-293T) (PSI 1-6); higher = more stable
Conditions: c terminus: a fixed tail appended
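Also: 24-mer peptide tiles fused after GFP, lentivirally expressed, FACS-sorted into six equal bins by GFP/DsRed ratio, decoded by Illumina sequencing, PSI is the read-weighted mean bin number.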

Sequence | protein stability index (treatment: DMSO) | protein stability index (treatment: MLN4924 1 uM, 8 h)
KVRPSHKRCIVILREIPETTPIEE [LARP4] | 2.59 ± 0.21 | 2.58 ± 0.35
FIYYENMLLGVPRLRQLKVRNDSC [PKD2L1] | 2.33 ± 0.26 | 2.19 ± 0.3
SPPEASPGPPAAPRARRRLGSGPD [PWWP2B] | 5.22 ± 0.39 | 5.47 ± 0.31
PLTLQSQPKEPQLTCDSAQKCHSI [ZSCAN9] | 4.36 ± 0.29 | 4.39 ± 0.15
RQIRTNWATRKPPAPKSTYECRCI [TIA1] | 2.56 ± 0.17 | 2.85 ± 0.45
NPTSAPGSRLAEFGAAGVNRLSIG [RSAD1] | 3.87 ± 0.072 | 3.64 ± 0.28
AGVLTIALPVPVIVSNFNYFYHRE [KCNA4] | 2.6 ± 0.21 | 2.84 ± 0.79
QAVCGKCSSKRSSYPVMGFEFQVR [WDFY1] | 2.16 ± 0.23 | 2.34 ± 0.44
GEYIYTGNAKGKILVLKTDSQDLV [RBBP5] | 2.25 ± 0.24 | 2.45 ± 0.57
AGSCRLGSAGGLGSTLGGSSYSSC [KRT17] | 2.22 ± 0.3 | 2.27 ± 0.31
MFSDNSHCPDCGQQWFPSLELGHW [TOR1AIP2] | 2.33 ± 0.35 | 2.44 ± 0.34
MAGSDTAPFLSQADDPDDGPVPGT [SPNS1] | 5.57 ± 0.17 | 5.34 ± 0.23
GDCDAREEKQRELARKGSLKNGSM [FAM219A] | 5.1 ± 0.26 | 5.35 ± 0.4
IIEYRGKFMLREQFEANGYFFKRP [KMT2E] | 2.31 ± 0.63 | 2.37 ± 0.36
SESGADTISVNQTRVNLSSDTEST [DLC1] | 5.33 ± 0.4 | 5.3 ± 0.58
LKLQTKTIKVSYARPSSASIRDAN [ELAVL3] | 2.77 ± 0.37 | 2.91 ± 0.32
SRVKGSAPEIDPSSDGSNFGWETK [KMT2E] | 4.83 ± 0.4 | 4.83 ± 0.15
SAPATAKENAAAPSPVRAPAPSPA [PALM] | 5.18 ± 0.21 | 5.34 ± 0.17
AAKARDTGILIFAIGVGQVDFNTL [MATN2] | 2.58 ± 1.1 | 3.16 ± 1
KLREKERKKEAKRKISSLSFTLEE [FAM50A] | 4.29 ± 0.3 | 4.53 ± 0.34
TFSMPSDSHVSSCSEDWVGYQRKC [CD69] | 3.64 ± 0.23 | 3.51 ± 0.23
CSITGDSSRVIAASYDKTVRAWDL [WDR88] | 2.57 ± 0.2 | 2.6 ± 0.2
RAILYPCHGMSSQLVRYSADGLLQ [GALNT9] | 2.69 ± 0.22 | 2.76 ± 0.27

Sequence | protein stability index (treatment: DMSO) | protein stability index (treatment: MLN4924 1 uM, 8 h)
EVKTRHSEKSQREDEEEEEGENYQ [CHGB] | 5.64 ± 0.28 | 5.48 ± 0.31
RITGLSPGRSALIVAVLCYINLLN [SPNS1] | 2.35 ± 0.47 | 2.14 ± 0.29
WKITIYDQENFQGKRMEFTSSCPN [CRYBA1] | 2.26 ± 0.38 | 2.15 ± 0.23
LVKKYGTKQWTLIAKHLKGRLGKQ [MYBL2] | 2.43 ± 0.89 | 2.45 ± 0.53
LVDQSKKANSPLKGHERTVQYLQH [VPS39] | 4 ± 0.3 | 3.85 ± 0.32
ESVEQLESRIVEQENAIQTMELRN [SNX8] | 5.41 ± 0.21 | 5.51 ± 0.11
EPSQMLKHAVVNLINYQDDAELAT [CTNNB1] | 4.16 ± 0.32 | 4.25 ± 0.26
LDDEDDTSIGMPSLMYRSPPGAEE [RETREG3] | 5.44 ± 0.23 | 5.39 ± 0.26
RCKEENTIILQQLLPLRTKVAKLL [NLN] | 2.47 ± 0.25 | 2.21 ± 0.17
ANAEDAQEFSDVERAIETLIKNFH [S100A14] | 3.39 ± 0.43 | 3.94 ± 0.74
YHSQDELGGFSHWGRLTSYSGGGY [PKD2L1] | 2.66 ± 0.6 | 2.52 ± 0.34
VRSQYPNQPTRFGKLLLRLPSLRT [NR2F2] | 2.42 ± 0.16 | 2.49 ± 0.23
EEDFDSEQLSVLASCLQELFKAHF [INTS3] | 2.24 ± 0.078 | 2.49 ± 0.29
ETVLALVNCISPLKYFSDFRPYFT [DENND6A] | 2.54 ± 0.48 | 3.21 ± 0.83
LGCYAVYSLLYLEHKGWYSWVLSM [CLPTM1] | 3.04 ± 0.42 | 3.27 ± 0.65
SDNLLVILKRKWWKYILLGLADVE [SLC35F2] | 2.38 ± 0.21 | 2.31 ± 0.73
SSALSQSGGGSTSAAGIEARSRAL [SPACA3] | 4.76 ± 0.41 | 4.82 ± 0.064
LITIATFQIAANLSMERYALVFGV [SLC19A2] | 3.02 ± 0.15 | 3.12 ± 0.59
RPGHLPGLLLGSHGLLGSPVRAAA [CDC25B] | 3.31 ± 0.53 | 3.09 ± 0.42
KHAGKDPVRDECEERNRFTETREE [FAM9B] | 5.54 ± 0.2 | 5.49 ± 0.2
QEALDPGPFDQGSPFAQELLDDGQ [ELF3] | 5.58 ± 0.24 | 5.32 ± 0.14
QQIHVVSQFKILVSLLENNIYVHD [VPS39] | 3.08 ± 0.059 | 3.23 ± 0.28
